Data: US20110150888A1 (Amgen, published 2011)
One block for each binder: values may come before it. Where no end group is shown, it is not given here.

B3: human hepcidin (mature, 25 amino acids) (peptide)
peptide: DTHFPICIFCCGCCHRSKCGMCCKT
modifications: disulfide (positions not given here); also: mono-biotinylated in some assays, site not given here
notes: the form is named in each assay field; also called rhuHepc; rhHepc

Legend:
[1] = target: B3; assay: ELISA, mono-biotinylated human hepcidin on Neutravidin plate, pH 6.0
Procedure: (§1) Differential pH binding of the antibodies listed above in Table 3 was then determined by ELISA. 50 μL of Neutravidin (Pierce) at 8 μg/mL in 1×PBS was coated upon a Nunc Maxisorp 384-well plate, and incubated at 37° C. for 1 hr. After blocking the wells with 0.1% BSA/PBS/0.05% Tween20 for 1 hour at room temperature, plates were washed six times with PBS/0.05% Tween20. 25 μL of mono-biotinylated hepcidin at 50 ng/mL in 0.1% BSA/PBS/0.05% Tween20 was added to the 384-well plate, and incubated at room temperature for 1 hour. The plates were next washed six times with PBS/0.05% Tween20. Starting hepcidin antibody concentrations were normalized to 1 μg/mL for pH 5.5 and 6.0 conditions and to 100 ng/mL for pH 7.4 conditions. The hepcidin antibodies were serially diluted 3-fold in PBS/1% NFDM pH 7.4 and 4-fold in PBS/1% NFDM pH 6.0 and 5.5. The dilutions and titrations were performed in polypropylene 96-well dilution plates, and then were transferred in duplicate to a Neutravidin-coated 384-well plate. The biotinylated hepcidin and antibodies were incubated for 2 hours at room temperature. The plate was next washed six times with PBS/0.05% Tween20. 25 μL it of goat anti-huIgG-horseradish peroxidase at a 1:7000 dilution in 0.1% BSA/PBS/0.05% Tween20 was next added to each well of the assay plate. The plate was finally washed six times in PBS/0.05% Tween20. Enhanced K-Blue 3,3′,5,5′-Tetramethylbenzidine (TMB) Substrate (Neogen) was added and the reaction stopped using 1 M H₃PO₄ after 10 minutes of incubation at room temperature. The absorption was measured at 450 nm on a plate reader. Binding data were analyzed by non-linear regression analysis (sigmoidal dose-response, variable slope) to generate EC₅₀ values using GraphPad Prism® software. […] Double combinations of these mutants were made.

[2] = target: B3; assay: antibody at 1:250 dilution; KinExA / BIAcore named in the paragraph
[3] = target: B3; assay: ELISA, mono-biotinylated human hepcidin on Neutravidin plate, pH 7.4
Procedure: as §1

[4] = target: T1, mouse hepcidin (mouse, UniProt Q9EQ21 59-83); assay: competition ELISA
T1 peptide (looked up): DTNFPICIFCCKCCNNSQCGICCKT

[5] = target: B3; assay: BIAcore, rhuHepc immobilised on CM5 chip, dissociation buffers of pH 7.4, 6 and 5.5; dissociation buffer pH 7.4
Procedure: Off-rate analysis of dissociation at different pHs was also performed. A slow off-rate is expected to predict increased binding interaction over a longer period of time, while a faster off-rate is expected to predict decreased binding interaction. For example, a faster off-rate at lower pH is expected to predict greater release of antigen at lower pH. Solution equilibrium binding analysis was performed using BIAcore to study the off-rates of antibodies 1S1, 1S3, 2.7, 18B11, 23F11 and 26F11 with recombinant human hepcidin (SEQ ID NO: 9).
Immobilization of recombinant human hepcidin (rhuHepc) to a BIAcore sensor chip surface was performed according to manufacturer's instructions at a flow rate 10 μL/min of running buffer (DPBS: Dulbecco's Phosphate Buffer Salinel X, no CaCl or MgCl, with 0.005% Biacore surfactant P-20). The carboxylated matrix of the sensor chip was first activated with a 60 μL injection of a mixture containing 0.2 M EDC(N-ethyl-N-(dimethylamine-propyl)carbodiimide in water, from BIAcore) and 0.05M NHS (N-hydroxysuccinimide in water, from Biacore). 55 μL of recombinant human hepcidin (1 μg/ml in 10 mM Na-acetate pH4.0) was injected to immobilize onto the sensor chip. The excess reactive groups of the sensor chip were deactivated with an injection of 60 μL of ethanolamine (1.0M, from Biacore). […]

[6] = target: B3; assay: KinExA solution equilibrium, human hepcidin-coated beads
Procedure: SA-Sepharose beads were pre-coated with biotinylated human hepcidin (SEQ ID NO: 9) and blocked with BSA according to manufacturer's instructions. Antibodies and hepcidin were diluted in PBS/0.1% BSA/0.05% NaN₃ buffer. Fixed concentrations of antibodies 15E1, 15E1 W52H, 15E1 A99H, 15E1 N521-1, 15E1 A107H and 18B11 were incubated with various concentrations of human hepcidin at room temperature for 8 hours before being run through the human hepcidin-coated beads. The amount of the bead-bound antibody was quantified by fluorescently (Cy5)-labeled goat anti-murine-IgG (H+L) antibody (Jackson Immuno Research, West Grove, Pa.). The binding signal is proportional to the concentration of free antibody at equilibrium. Dissociation equilibrium constant (KD) was obtained from nonlinear regression of the competition curves using a dual-curve one-site homogeneous binding model (KinExATM Pro software).

[7] = target: B3; assay: sandwich ELISA built from 1S1 and 23F11 (one curve for the pair of antibodies), hepcidin titrated; the axis gives hepcidin levels before a 50-fold pre-dilution
[8] = target: T2, murine antibody 2.7; assay: competitive binding assay, luminescence, standards in rabbit serum: unlabelled hepcidin against biotinylated human hepcidin (0.25 nM) for Ab2.7
T2 construct: Murine monoclonal antibody; murine IgG1 was used as its isotypic control; also called Ab2.7; Ab 2.7
Procedure: (§2) Hepcidin levels were determined using hepcidin standards of varying concentrations (from 1.4-300 ng/ml) spiked into buffer (5% BSA:I-block), rabbit serum, or pooled human serum. Hepcidin was added to equal volumes of 40 ng/mL of Ab2.7 and incubated for 120 minutes. 25 μl/well of mixed solution was added to Black half area plates coated with 1-2 μg/mL G×M capture antibody. 25 μL/well of biotinylated hepcidin was added at 0.25 nM. The plate was covered with plate film sealer and incubated at room temperature (25° C.) on a plate shaker at around <200 RPM for around 60 minutes. The plate was washed and then 50 μL/well of Poly horseradish peroxidase amplification reagent at 1:2000 was added. The plate was allowed to sit for 30 minutes and was then washed with a plate washer using PBS or KPL buffer 6 times. The plate was patted dry and a luminescent substrate (Femto or Pico) was quickly added. The plate was read with luminometer (ex: Lmax 340) for 1 second using Femto or Pico Substrate. […] (FIG. 18).

[9] = target: T2, murine antibody 2.7; assay: competitive binding assay, luminescence, standards spiked into pooled human serum (endogenous hepcidin present, not counted on the axis): unlabelled hepcidin against biotinylated human hepcidin (0.25 nM) for Ab2.7
Procedure: as §2

[10] = target: T2, murine antibody 2.7; assay: competitive binding assay, luminescence, standards in buffer (5% BSA: I-block): unlabelled hepcidin against biotinylated human hepcidin (0.25 nM) for Ab2.7
Procedure: as §2

EC50 [1]: 244 ng/mL | fold reduction in affinity at pH 6 compared to pH 7.4 [2]: ~10 fold | EC50 [3]: 2.7 ng/mL | binding result [4]: no binding | koff [5]: > 0.01 s⁻¹ | Kd [6]: 7.4 nM
B1: antibody 18B11 (antibody, V domains shown)
VH: QVQLQQWGAGPLKPSETLSLTCAVYNGSFSGYYWSWIRQPPGKGLEWIGDINHSGNTKYNPSLKSRVTISVDTSKNQFSLKLSSVTAADTAVYYCARGDFWSGFDWFDPWGQGTLVTVSS
VL: QSALTQPASVSGSPGQSITISCTGTSSNVGSYNLVSWYQQHPGKAPKLMISEVSKRPSGLSNRFSGSKSGNTASLTISGLQAEDEADYYCCSYAGSSTLIFGGGTKLTVL
notes: Human antibody from Xenomouse IgG2 or IgG4 mice; also called 181311

EC50 (read off the curve) [7]: ~100 ng/mL
B2: antibody 1S1 (antibody, human IgG2, kappa, V domains shown)
VH: QVQLVQSGDEVKKPGASVKVSCKASGYTFIKYGISWVRQAPGQGLEWMGWIGAFNGNTDYARNLQARVTMTTDTSTSTAYMELRSLRSDDTAVYYCAREGWNDDYFSGLDVWGQGTTVTVSS
VL: EIVLTQSPGTLSLSPGERATLSCRASQSVSSNYLAWYQQKPGQAPRLLIYGASSRATGIPDRFSGSGSGTDFTLIISRLEPEDFVVYYCQQYGSSLTFGGGTKVEIKR
notes: Human antibody; also called Ab 1S1

Binder: B3
IC50 (read off the curve) [8]: ~7 ng/mL | IC50 (read off the curve) [9]: ~10 ng/mL | IC50 (read off the curve) [10]: ~8 ng/mL

EC50 (read off the curve) [7]: ~100 ng/mL
B4: antibody 23F11 (antibody, V domains shown)
VH: QVQLQQSGPGLVKPSQTLSLTCAISGDSVSSNSAAWNWIRQSPSRGLEWLGRTYYRSKWFNDYAVSVQSRITINPDTSKNQFSLQLNSVTPEDTAVYYCARGIVFSYAMDVWGQGTTVTVSS
VL: NFMLTQPHSVSESPGKTVTISCTRSSGSIASYYVQWYQQRPGSSPTTVIYEDSQRPSGVPDRFSGSIDSSSNSASLTISGLKTEDEADYYCQSYDSSNVVFGGGTKLTVL
notes: Human antibody
